# Source: patent US6562613
# Tested on: series of eight synthetic peptides with sequences found in and around the C-proteinase cleavage sites of -Ala-Asp- and -Gly-Asp- in the four pro-alpha chains of types I, II and III procollagen
substance,measurement,value
C-proteinase (enzyme used on the synthetic peptide substrates; source not stated),"cleavage of synthetic peptides, HPLC followed by laser desorption mass spectrometry",four of the eight propeptides were specifically and completely cleaved by the enzyme
